Results as given in US8865657B2, “Compositions and methods for inactivating or suppressing inflammatory cells” (New York University, priority 2005, dated 2014).

What was measured:
HepG2 cells = assay: cAMP radioimmunoassay, intracellular cAMP in HepG2 cells; format: cell-based, human
Method: (§1) Cell culture. […] HepG2 cells were used on day 3 after plating.
(§2) Cell treatment. […] Role of calcium and cyclic AMP. […] J Immunol 174: 2981-2989). […] IBMX was dissolved in dimethyl sulphoxide (DMSO).
(§3) cAMP radioimmunoassay. For cAMP determination, liver cell cultures were incubated in culture medium without FCS at 37° C. for 0-90 min. The cultures were then placed on ice, and the reaction was stopped by aspiration of the incubation medium followed by the addition of 1 ml of ice cold 65% (vol/vol) ethanol. The cells were scraped into Eppendorf tubes and centrifuged at 10000 g for 10 min at 4° C. The supernatants were dried in SC110 Speedvac Concentrator (Savant, Farmingdale, N.Y.) at room temperature, and the dried extracts were dissolved in assay buffer for cAMP determination with cAMP [^125I] Direct Biotrak Assay from Amersham Biosciences (Piscataway, N.J.), according to the instructions of the manufacturer. Samples were analyzed with a Beckman LS 6000 scintillation counter. The cAMP level in each sample was normalized to the protein concentration and expressed as fmol/μg of protein. Ethanol-precipitated cell pellets were diluted with 0.15 M NaOH and the protein concentration was measured with the Micro BCA Protein Assay Kit (Pierce Chemical Co., Rockford, Ill.) according to manufacturer's instructions.

Kupffer cells [1] = assay: cAMP radioimmunoassay, intracellular cAMP in Kupffer cells; format: cell-based, rat; conditions: for effect on cAMP level, agent alone: RAP 500 nM alone, lactoferrin 100 nM
Method: (§4) Liver cell isolation. […] The nonparenchymal cell-containing supernatant was saved.
as §1, §2, §3

Hepatocytes = assay: cAMP radioimmunoassay, intracellular cAMP in hepatocytes; format: cell-based, rat
Method: as §4, §1, §2, §3

Liver endothelial cells = assay: cAMP radioimmunoassay, intracellular cAMP in liver endothelial cells; format: cell-based, rat
Method: as §4, §1, §2, §3

Kupffer cells [2] = assay: Inositol-1,4,5-trisphosphate (IP3) assay in Kupffer cells; format: cell-based, rat; conditions: data not shown
Method: as §4, §1
Inositol-1,4,5-trisphosphate (IP3) assay. Intracellular IP3 levels were measured with a IP3 [^3H] Biotrak Assay (Amersham Biosciences, Piscataway, N.J.). Liver cells (3.0×10^6 per well) were incubated for 0, 30, 60, 120 sec with 100 nM CSP in RPMI-1640 containing 10 mM LiCI. The plates were then placed on ice, and the reaction was stopped by aspiration of the incubation medium followed by the addition of 20% ice-cold perchloric acid. After incubation on ice for 20 min, the cells were scraped into Eppendorf tubes. The precipitated protein was removed by centrifugation at 10000 g for 15 min at 4° C. The supernatant was neutralized to pH 7.5 by titrating with ice-cold 1.5 M KOH containing 60 mM HEPES buffer. The precipitated KClO4 was removed by centrifugation at 5000 g for 15 min at 4° C. Radioactivity in the supernatant was measured with a Beckman LS 6000 scintillation counter.

Row | Molecule | cAMP (HepG2 cells; HepG2 cells, 100 nM lactoferrin, 30 min at 37° C., mean±S.E.) [fmol/μg protein] | effect on cAMP concentration (HepG2 cells; human hepatoma cell line HepG2) | cAMP (Kupffer cells [1]; Kupffer cells, 100 nM lactoferrin, 30 min at 37° C., serum-free RPMI-1640, mean±S.E.) [fmol/μg protein] | effect on cAMP level, agent alone (Kupffer cells [1]; Kupffer cells) | cAMP (Hepatocytes; Hepatocytes, 100 nM lactoferrin, 30 min at 37° C., mean±S.E.) [fmol/μg protein] | effect on cAMP concentration (Hepatocytes; hepatocytes) | cAMP (Liver endothelial cells; Liver endothelial cells, 100 nM lactoferrin, 30 min at 37° C., mean±S.E.) [fmol/μg protein] | effect on cAMP concentration (Liver endothelial cells; endothelial cells) | effect on the CSP-induced generation of cAMP (Kupffer cells [1]; added 10 min before 50 nM CSP (30 min), RAP 500 nM) | effect on IP3, agent alone (Kupffer cells [2]; RAP alone) | effect on the CSP-induced IP3 increase (Kupffer cells [2]; preincubation 10 min with 500 nM RAP before CSP)
1 | Lactoferrin: lactoferrin (LF; from bovine colostrum), another LRP-1 ligand (protein, UniProt P24627 20-708, looked up) Lactotransferrin: APRKNVRWCTISQPEWFKCRRWQWRMKKLGAPSITCVRRAFALECIRAIAEKKADAVTLDGGMVFEAGRDPYKLRPVAAEIYGTKESPQTHYYAVAVVKKGSNFQLDQLQGRKSCHTGLGRSAGWIIPMGILRPYLSWTESLEPLQGAVAKFFSASCVPCIDRQAYPNLCQLCKGEGENQCACSSREPYFGYSGAFKCLQDGAGDVAFVKETTVFENLPEKADRDQYELLCLNNSRAPVDAFKECHLAQVPSHAVVARSVDGKEDLIWKLLSKAQEKFGKNKSRSFQLFGSPPGQRDLLFKDSALGFLRIPSKVDSALYLGSRYLTTLKNLRETAEEVKARYTRVVWCAVGPEEQKKCQQWSQQSGQNVTCATASTTDDCIVLVLKGEADALNLDGGYIYTAGKCGLVPVLAENRKSSKHSSLDCVLRPTEGYLAVAVVKKANEGLTWNSLKDKKSCHTAVDRTAGWNIPMGLIVNQTGSCAFDEFFSQSCAPGADPKSRLCALCAGDDQGLDKCVPNSKEKYYGYTGAFRCLAEDVGDVAFVKNDTVWENTNGESTADWAKNLNREDFRLLCLDGTRKPVTEAQSCHLAVAPNHAVVSRSDRAAHVKQVLLHQQALFGKNGKNCPDKFCLFKSETKNLLFNDNTECLAKLGGRPTYEEYLGTEYVTAIANLKKCSTSPLLEACAFLTR | 6.50 ± 0.07 | no significant effect | 14.10 ± 2.10 | no significant effect | 2.61 ± 0.09 | no significant effect | 5.58 ± 0.30 | no significant effect | – | – | –
2 | RAP: Recombinant human RAP, universal inhibitor of ligand binding to LRP-1 (protein, UniProt P30533 35-357, looked up) Alpha-2-macroglobulin …: YSREKNQPKPSPKRESGEEFRMEKLNQLWEKAQRLHLPPVRLAELHADLKIQERDELAWKKLKLDGLDEDGEKEARLIRNLNVILAKYGLDGKKDARQVTSNSLSGTQEDGLDDPRLEKLWHKAKTSGKFSGEELDKLWREFLHHKEKVHEYNVLLETLSRTEEIHENVISPSDLSDIKGSVLHSRHTELKEKLRSINQGLDRLRRVSHQGYSTEAEFEEPRVIDLWDLAQSANLTDKELEAFREELKHFEAKIEKHNHYQKQLEIAHEKLRHAESVGDGERVSRSREKHALLEGRTKELGYTVKKHLQDLSGRISRARHNEL | – | – | – | had no effect | – | – | – | – | blocked | had no effect | prevented this increase
